Results taken from article PMC8985213.

Molecular target: BamD_(R49C) (E. coli) (UniProt P0AC02)
Assay: cross-linking

^MBP−76EspP_(D1218C)
percent crosslinked (plateau after oxidation with 4-DPS): 40%
percent crosslinked spontaneously (Ox-, no oxidant): 10%
